test system: Escherichia coli TOP10; assay: shrunken log2 fold change of peptide-encoding DNA abundance (4.5 h post-induction vs induction); higher = less antimicrobial activity (less host growth inhibition); details: time post-induction: 4.5 h; library: site-saturation at positions 5, 18, 19, 20
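Also: peptides expressed intracellularly from a pBAD plasmid library in pooled LB shake-flask culture, induced with 0.3% L-arabinose, DNA abundance read by NGS, three biological replicates, DESeq2 with apeglm shrinkage.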

| Sequence | shrunken log2 fold change |
| --- | --- |
| RRIRRRPPRLPRPRPRPSTYPRP | -0.418 |
| RRIRGRPPRLPRPRPRPIMMPRP | -0.0902 |
| RRIRIRPPRLPRPRPRPEDSPRP | -0.0125 |
| RRIRSRPPRLPRPRPRPVHWPRP | 0.138 |
| RRIRARPPRLPRPRPRPSPRPRP | 0.818 |
| RRIRHRPPRLPRPRPRPGNTPRP | -0.319 |
| RRIRCRPPRLPRPRPRPESHPRP | 0.0129 |
| RRIRDRPPRLPRPRPRPAAFPRP | 0.549 |
| RRIRVRPPRLPRPRPRPQRHPRP | -0.0604 |
| RRIRCRPPRLPRPRPRPCWWPRP | 0.904 |
| RRIRARPPRLPRPRPRPRDCPRP | 0.391 |
| RRIRMRPPRLPRPRPRPENFPRP | 0.0515 |
| RRIRSRPPRLPRPRPRPNLRPRP | 0.0182 |
| RRIRPRPPRLPRPRPRPNKFPRP | -0.173 |
| RRIRGRPPRLPRPRPRPSACPRP | 1.5 |
| RRIRGRPPRLPRPRPRPDQDPRP | 1.06 |
| RRIRFRPPRLPRPRPRPCPVPRP | -0.618 |
| RRIRWRPPRLPRPRPRPVTMPRP | -0.0519 |
| RRIRARPPRLPRPRPRPSRFPRP | 0.125 |
| RRIRHRPPRLPRPRPRPGVQPRP | 0.00489 |
| RRIRMRPPRLPRPRPRPHFCPRP | -0.0487 |
| RRIRPRPPRLPRPRPRPKGKPRP | -0.135 |
| RRIRRRPPRLPRPRPRPHECPRP | 0.0921 |
| RRIRCRPPRLPRPRPRPAGYPRP | -0.342 |
| RRIRCRPPRLPRPRPRPVQVPRP | -0.164 |

| Sequence | shrunken log2 fold change |
| --- | --- |
| RRIRNRPPRLPRPRPRPYLWPRP | -0.23 |
| RRIRMRPPRLPRPRPRPKFGPRP | -0.0062 |
| RRIRERPPRLPRPRPRPHRDPRP | -0.063 |
| RRIRHRPPRLPRPRPRPVFIPRP | -0.493 |
| RRIRSRPPRLPRPRPRPFATPRP | 0.461 |
| RRIRRRPPRLPRPRPRPTQGPRP | 0.935 |
| RRIRPRPPRLPRPRPRPKCWPRP | 0.765 |
| RRIRCRPPRLPRPRPRPCATPRP | 0.16 |
| RRIRYRPPRLPRPRPRPQYSPRP | -1.71 |
| RRIRTRPPRLPRPRPRPFMRPRP | -0.0135 |
| RRIRHRPPRLPRPRPRPVSQPRP | 0.114 |
| RRIRIRPPRLPRPRPRPSTHPRP | -1.02 |
| RRIRQRPPRLPRPRPRPGSKPRP | -0.00453 |
| RRIRVRPPRLPRPRPRPHVIPRP | -0.0921 |
| RRIRRRPPRLPRPRPRPTGAPRP | 0.633 |
| RRIRPRPPRLPRPRPRPGAKPRP | 0.265 |
| RRIRLRPPRLPRPRPRPALFPRP | 0.488 |
| RRIRARPPRLPRPRPRPMTYPRP | -0.086 |
| RRIRGRPPRLPRPRPRPIQSPRP | -0.0426 |
| RRIRVRPPRLPRPRPRPQCFPRP | 0.00325 |
| RRIRMRPPRLPRPRPRPIYSPRP | -0.0833 |
| RRIRLRPPRLPRPRPRPACEPRP | 0.317 |
| RRIRSRPPRLPRPRPRPKDSPRP | 0.1 |
| RRIRMRPPRLPRPRPRPIGDPRP | 0.0215 |
| RRIRYRPPRLPRPRPRPENRPRP | 0.0112 |

| Sequence | shrunken log2 fold change |
| --- | --- |
| RRIRIRPPRLPRPRPRPLTQPRP | -0.648 |
| RRIRQRPPRLPRPRPRPIANPRP | -0.0128 |
| RRIRGRPPRLPRPRPRPVREPRP | 1.11 |
| RRIRERPPRLPRPRPRPHCMPRP | -0.235 |
| RRIRERPPRLPRPRPRPEMAPRP | 0.414 |
| RRIRERPPRLPRPRPRPKQWPRP | 0.0081 |
| RRIRNRPPRLPRPRPRPWRWPRP | 0.0867 |
| RRIRARPPRLPRPRPRPQENPRP | 0.394 |
| RRIRLRPPRLPRPRPRPEPYPRP | -0.305 |
| RRIRNRPPRLPRPRPRPHSYPRP | 0.132 |
| RRIRPRPPRLPRPRPRPFSWPRP | -0.0698 |
| RRIRVRPPRLPRPRPRPKSFPRP | 0.217 |
| RRIRIRPPRLPRPRPRPPWKPRP | 0.089 |
| RRIRIRPPRLPRPRPRPKNYPRP | -0.417 |
| RRIRNRPPRLPRPRPRPKWVPRP | 0.132 |
| RRIRMRPPRLPRPRPRPYIRPRP | -0.13 |
| RRIRPRPPRLPRPRPRPWNSPRP | -0.163 |
| RRIRSRPPRLPRPRPRPHMCPRP | -0.425 |
| RRIRGRPPRLPRPRPRPRLFPRP | 1.11 |
| RRIRGRPPRLPRPRPRPGPIPRP | 0.619 |
| RRIRGRPPRLPRPRPRPMIIPRP | 0.0975 |
| RRIRHRPPRLPRPRPRPAISPRP | -0.121 |
| RRIRGRPPRLPRPRPRPDDSPRP | 0.121 |
| RRIRWRPPRLPRPRPRPYPHPRP | -0.184 |
| RRIRFRPPRLPRPRPRPCVTPRP | -0.492 |

| Sequence | shrunken log2 fold change |
| --- | --- |
| RRIRMRPPRLPRPRPRPQVSPRP | 0.399 |
| RRIRCRPPRLPRPRPRPNVWPRP | 0.0481 |
| RRIRPRPPRLPRPRPRPTWFPRP | 0.0698 |
| RRIRHRPPRLPRPRPRPPSCPRP | 0.604 |
| RRIRNRPPRLPRPRPRPHIHPRP | -0.445 |
| RRIRNRPPRLPRPRPRPWFIPRP | -0.306 |
| RRIRERPPRLPRPRPRPVQFPRP | -0.0474 |
| RRIRWRPPRLPRPRPRPYLQPRP | -0.113 |
| RRIRWRPPRLPRPRPRPFPNPRP | -0.138 |
| RRIRVRPPRLPRPRPRPLDIPRP | -0.0121 |
| RRIRCRPPRLPRPRPRPFRKPRP | -0.0377 |
| RRIRRRPPRLPRPRPRPQENPRP | -0.0472 |
| RRIRCRPPRLPRPRPRPKLQPRP | 0.155 |
| RRIRRRPPRLPRPRPRPFKWPRP | -0.157 |
| RRIRLRPPRLPRPRPRPIAVPRP | -0.16 |
| RRIRCRPPRLPRPRPRPFWRPRP | 0.0785 |
| RRIRVRPPRLPRPRPRPHWQPRP | -0.024 |
| RRIRPRPPRLPRPRPRPFGNPRP | -0.146 |
| RRIRNRPPRLPRPRPRPWYEPRP | -0.0232 |
| RRIRVRPPRLPRPRPRPLLYPRP | -0.259 |
| RRIRNRPPRLPRPRPRPEWQPRP | -0.0264 |
| RRIRYRPPRLPRPRPRPDVCPRP | -0.124 |
| RRIRIRPPRLPRPRPRPGYIPRP | -0.752 |
| RRIRQRPPRLPRPRPRPTSMPRP | -0.049 |
| RRIRKRPPRLPRPRPRPPLQPRP | 0.558 |

| Sequence | shrunken log2 fold change |
| --- | --- |
| RRIRIRPPRLPRPRPRPWIFPRP | -0.498 |
| RRIRFRPPRLPRPRPRPQCHPRP | -0.358 |
| RRIRTRPPRLPRPRPRPWHMPRP | 0.0039 |
| RRIRLRPPRLPRPRPRPDVSPRP | 0.0432 |
| RRIRARPPRLPRPRPRPNVDPRP | 0.0662 |
| RRIRGRPPRLPRPRPRPWLIPRP | -0.192 |
| RRIRWRPPRLPRPRPRPVHPPRP | -0.23 |
| RRIRKRPPRLPRPRPRPIFDPRP | 0.205 |
| RRIRGRPPRLPRPRPRPCAIPRP | 2.08 |
| RRIRKRPPRLPRPRPRPPCIPRP | -0.141 |
| RRIRCRPPRLPRPRPRPMQTPRP | 1.52 |
| RRIRSRPPRLPRPRPRPKRIPRP | -0.275 |
| RRIRTRPPRLPRPRPRPWERPRP | -0.0102 |
| RRIRTRPPRLPRPRPRPWSWPRP | -0.0374 |
| RRIRMRPPRLPRPRPRPRVPPRP | 0.83 |
| RRIRPRPPRLPRPRPRPHFQPRP | 0.0551 |
| RRIRYRPPRLPRPRPRPHIDPRP | -1.95 |
| RRIRGRPPRLPRPRPRPRPNPRP | 0.64 |
| RRIRPRPPRLPRPRPRPFSDPRP | -0.0761 |
| RRIRWRPPRLPRPRPRPWCKPRP | -0.239 |
| RRIRNRPPRLPRPRPRPANQPRP | 0.271 |
| RRIRTRPPRLPRPRPRPLAAPRP | 0.363 |
| RRIRKRPPRLPRPRPRPITWPRP | 0.0399 |
| RRIRCRPPRLPRPRPRPFIGPRP | -0.228 |
| RRIRVRPPRLPRPRPRPDRHPRP | -0.0428 |

| Sequence | shrunken log2 fold change |
| --- | --- |
| RRIRRRPPRLPRPRPRPRMEPRP | 0.0167 |
| RRIRLRPPRLPRPRPRPMFWPRP | 0.145 |
| RRIRWRPPRLPRPRPRPENWPRP | 0.254 |
| RRIRMRPPRLPRPRPRPVQLPRP | 0.0278 |
| RRIRERPPRLPRPRPRPDSMPRP | -0.076 |
| RRIRMRPPRLPRPRPRPSHAPRP | 0.282 |
| RRIRERPPRLPRPRPRPLCNPRP | -0.342 |
| RRIRCRPPRLPRPRPRPGRAPRP | 0.453 |
| RRIRPRPPRLPRPRPRPCYQPRP | -0.565 |
| RRIRSRPPRLPRPRPRPITHPRP | -0.419 |
| RRIRMRPPRLPRPRPRPQDPPRP | 0.786 |
| RRIRERPPRLPRPRPRPLLVPRP | -0.441 |
| RRIRCRPPRLPRPRPRPWQFPRP | -0.0402 |
| RRIRQRPPRLPRPRPRPGSQPRP | -0.161 |
| RRIRLRPPRLPRPRPRPLSYPRP | 0.128 |
| RRIRQRPPRLPRPRPRPQRMPRP | -0.0094 |
| RRIRSRPPRLPRPRPRPRMFPRP | -0.121 |
| RRIRVRPPRLPRPRPRPYYWPRP | -0.0974 |
| RRIRRRPPRLPRPRPRPSKVPRP | -0.0758 |
| RRIRLRPPRLPRPRPRPCNLPRP | 0.034 |
| RRIRGRPPRLPRPRPRPLEKPRP | 0.725 |
| RRIRGRPPRLPRPRPRPNEGPRP | 0.0414 |
| RRIRGRPPRLPRPRPRPYRWPRP | 0.191 |
| RRIRWRPPRLPRPRPRPPRMPRP | 0.348 |
| RRIRFRPPRLPRPRPRPKSDPRP | 0.0639 |
